Results: US20130274185A1, “Pharmaceutical for Pseudo-Exercise Therapy” (THE UNIVERSITY OF TOKYO, priority 2010, published 2013)

Experiments:
AdipoR1 = target: T1, AdipoR1 (Mus musculus, UniProt Q91VH1); assay: Electrophysiological recording in Xenopus oocytes expressing AdipoR1; type: cell-based
T1 construct: expressed in transfected cells; host or cells: Xenopus oocytes (stage V to VII), cRNA synthesized from linearized modified pSPUTK
T1 sequence (Q91VH1 1-375): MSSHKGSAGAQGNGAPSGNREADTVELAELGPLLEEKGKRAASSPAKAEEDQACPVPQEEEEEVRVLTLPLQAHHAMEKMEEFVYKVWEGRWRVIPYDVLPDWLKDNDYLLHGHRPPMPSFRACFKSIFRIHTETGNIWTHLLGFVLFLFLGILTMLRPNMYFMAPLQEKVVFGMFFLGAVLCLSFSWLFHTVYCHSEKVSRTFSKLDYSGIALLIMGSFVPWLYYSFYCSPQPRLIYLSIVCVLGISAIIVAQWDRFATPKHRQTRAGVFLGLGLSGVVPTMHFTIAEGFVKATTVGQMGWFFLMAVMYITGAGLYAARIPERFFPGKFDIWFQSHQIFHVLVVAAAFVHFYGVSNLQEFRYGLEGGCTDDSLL
Procedure: Stage V to VII oocytes were treated with 2 mg/ml of collagenase S-1 (Nitta gelatin) in calcium ion-free saline solution (82.5 mM NaCl, 2 mM KCl, 1 mM MgCl2, and 5 mM HEPES, pH 7.5) for 1 to 2 hr at room temperature. The resulting oocytes were then microinjected with 50 ng of cRNA for mAdipoR1. The cRNA was synthesized from linearized modified pSPUTK. The injected oocytes were incubated for 3 days at 18° C. in a bath solution (88 mM NaCl, 1 mM KCl, 0.3 mM Ca(NO3)2, 0.4 mM CaCl2, 0.8 mM MgSO4, 2.4 mM […], 15 mM HEPES, pH 7.6) supplemented with 10 μg/ml of penicillin and streptomycin.
Whole cell currents were recorded with a two-electrode voltage clamp technique. Intracellular glass electrodes were filled with 3M KCl. Signals were amplified with an OC-725C amplifier (Warner Instruments), low-pass filtered at 50 Hz, and digitized at 1 kHz. A control bath solution contained 115 mM NaCl, 2.5 mM KCl, 1.8 mM CaCl2, and 10 mM HEPES. It was titrated to pH 7.2 with NaOH. A calcium ion free solution containing 1.8 mM BaCl2 instead of CaCl2 was used. The inward current was monitored at a holding potential of −80 mV. Calcium ion activated Cl^− current was monitored by applying 500-mscc depolarizing pulses of +100 mV and +50 mV from the holding potential of −80 mV. Adiponectin was supplied to the superfusing bath solution via a silicon tube connected to computer-driven solenoid valves. Data acquisition and analysis were carried out using Digidata 1322A and pCLAMP software.

CaMKI [1] = assay: CaMKI phosphorylation in C2C12 myocytes; type: cell-based, mouse; settings: adiponectin 30 μg/ml, 0-20 min
Procedure: (§1) The mouse C2C12 myoblasts were grown in 90% Dulbecco's modified high glucose Eagle's medium containing 10% (v/v) fetal bovine serum. When the cells reached 80% confluent, the myoblasts were induced to differentiate into myocytes by replacing the medium with a low serum differentiation medium (98% Dulbecco's modified high glucose Eagle's medium, 2.5% (v/v) horse serum). The medium was changed daily. The C2C12 cells were transfected by using Pofectamine 2000 (Invitrogen) and following the manufacturer's instructions.

PGC-1α (Ppargc1a) [2] = assay: Ppargc1a mRNA levels in skeletal muscle in vivo; set-up: species or system mice; settings: control littermates; 30 μg per 10 g body weight, 10 min
Procedure: (§2) Mouse full-length adiponectin was generated as described in the following documents (Nature Med. 8, 1288-1295 (2002); Nature Med. 7, 941-946 (2001); Nature 423, 762-769 (2003)).
(§3) Real-time PCR was carried out according to the method described in the following documents (Nature Med. 13, 332-339 2007); Nature 423, 762-769 (2003); J. Biol. Chem. 281, 8748-8755 (2006)). Total RNA was prepared from cells or tissues by using Trizol (Invitrogen) according to the manufacturer's instructions. Quantification of mRNA was conducted using a real-time PCR method (Nature 423, 762-769 (2003)) with slight modifications. The procedures used for immunoblotting are described in the following documents (Nature Med. 7, 941-946 (2001); J. Biol. Chem. 281, 26602-26614 (2006); J. Biol. Chem. 281, 8748-8755 (2006)). The livers or muscles were freeze-clamped in liquid nitrogen in situ (Nature Med. 7, 941-946 (2001); J. Biol. Chem. 281, 26602-26614 (2006); J. Biol. Chem. 281, 8748-8755 (2006)).

C2C12 myocytes = assay: Calcium imaging in C2C12 myocytes (fura-2); type: cell-based, mouse
Procedure: C212 myocytes cultured on glass base dishes (IWAKI) were treated with 2.5 μM fura-2/AM for 30 min. Fluorescence was measured with an Aquacosmos Calcium Imaging system (Hamamatsu Photonics). Ligands were delivered through the superfusing Ringer's solution (140 mM NaCl, 5.6 mM KCl, 5 mM HEPES, 2.0 mM sodium pyruvate, 1.25 mM KH2PO4, 2.0 mM CaCl2, 2.0 mM MgCl2, 9.4 mM D-glucose (pH 7.4)). For the calcium chelating experiment, EGTA solution (140 mM NaCl, 5.6 mM KCl, 5 mM HEPES, 2.0 mM sodium pyruvate, 1.25 mM KH2PO4, 2.0 mM MgCl2, 5.0 mM EGTA-2Na, 9.4 mM D-glucose (pH 7.4) was used for the bath solution. Fura-2 fluorescence ratios were calibrated to calcium ion signals.

PGC-1α (Ppargc1a) [3] = assay: PGC-1α (Ppargc1a) expression in C2C12 myocytes; type: cell-based, mouse; settings: C2C12 myocytes, adiponectin 10 μg/ml 1.5 hours
Procedure: as §3, §1

CaMKI [4] = assay: CaMKI phosphorylation in skeletal muscle in vivo; set-up: species or system mice; settings: 30 μg per 10 g body weight, 5 min
From the text: as §2

[5] = Plasma adiponectin level after intravenous adiponectin injection; type: in vivo, mice; settings: 30 μg recombinant murine adiponectin per 10 g body weight, intravenously
From the text: as §2

AMPK = AMPK phosphorylation in vivo (skeletal muscle and liver); set-up: species or system mice; settings: 30 μg per 10 g body weight, 10 min
Procedure: as §2, §3

B1: adiponectin (protein, UniProt Q60994 1-247, looked up)
chain: MLLLQALLFLLILPSHAEDDVTTTEELAPALVPPPKGTCAGWMAGIPGHPGHNGTPGRDGRDGTPGEKGEKGDAGLLGPKGETGDVGMTGAEGPRGFPGTPGRKGEPGEAAYVYRSAFSVGLETRVTVPNVPIRFTKIFYNQQNHYDGSTGKFYCNIPGLYYFSYHITVYMKDVKVSLFKKDKAVLFTYDQYQEKNVDQASGSVLLHLEVGDQVWLQVYGDGDHNGLYADNVNDSTFTGFLLYHDTN
modifications: full-length
notes: adipokine, internal ligand of adiponectin receptor 1; recombinant murine full-length adiponectin
AdipoR1; control oocytes without AdipoR1 cRNA
  calcium-ion activated Cl- current response: not observed
AdipoR1; oocytes expressing AdipoR1, adiponectin 30 μg/ml, holding potential -80 mV
  inward current response: induced inward current responses
AdipoR1; oocytes injected with AdipoR1 cRNA, adiponectin 30 μg/ml
  intracellular calcium levels by calcium-ion activated Cl- current: increase in intracellular calcium levels
CaMKI [1]
  CaMKI phosphorylation: rapid, robust, and transient increase
PGC-1α (Ppargc1a) [2]
  expression levels of Ppargc1a in muscle: increased the expression levels of Ppargc1a in the muscle of control littermates
C2C12 myocytes
  dose dependence of calcium response: dose-dependent responses
C2C12 myocytes; adiponectin 30 μg/ml
  intracellular calcium ion concentration (fura-2): increased an intracellular calcium ion concentration
PGC-1α (Ppargc1a) [3]
  PGC-1α expression: increase in PGC-1α expression
CaMKI [4]
  phosphorylation of CaMKI in skeletal muscle in vivo: significantly increased
[5]
  plasma adiponectin levels: approximately 30 μg/ml
AMPK; both genotypes
  phosphorylation of AMPK in liver: increased the phosphorylation of AMPK in the liver of both genotypes
AMPK; control littermates
  phosphorylation of AMPK in skeletal muscle: increased the phosphorylation of AMPK in the muscle of control littermates
